Key:
[1] = target: human α-thrombin (recombinant) (human) (UniProt P00734); assay: assay not named
[2] = target: human α-thrombin (recombinant) (human) (UniProt P00734); assay: cell-based or functional assay

Work on β-variegin (peptide) yielded a Ki [1] greater than 30 nM and a time to observe clot formation in blood tubes, 300 µM peptide [2] of 4 h.
